Laboratory results reported in US20060121045A1 (published 2006).

What was measured:
[1] = biological target: T1, anthrax protective antigen (PA) (Bacillus anthracis, UniProt P13423 30-764); assay: SPR
[2] = biological target: T1, anthrax protective antigen (PA); assay: not stated (presumably SPR)
[3] = biological target: T1, anthrax protective antigen (PA); assay: SPR (Biacore 3000), PA down; antibody analyte
[4] = biological target: T1, anthrax protective antigen (PA); assay: SPR (Biacore 3000), antibody down; PA analyte

T1 sequence (P13423 30-764 limits assumed): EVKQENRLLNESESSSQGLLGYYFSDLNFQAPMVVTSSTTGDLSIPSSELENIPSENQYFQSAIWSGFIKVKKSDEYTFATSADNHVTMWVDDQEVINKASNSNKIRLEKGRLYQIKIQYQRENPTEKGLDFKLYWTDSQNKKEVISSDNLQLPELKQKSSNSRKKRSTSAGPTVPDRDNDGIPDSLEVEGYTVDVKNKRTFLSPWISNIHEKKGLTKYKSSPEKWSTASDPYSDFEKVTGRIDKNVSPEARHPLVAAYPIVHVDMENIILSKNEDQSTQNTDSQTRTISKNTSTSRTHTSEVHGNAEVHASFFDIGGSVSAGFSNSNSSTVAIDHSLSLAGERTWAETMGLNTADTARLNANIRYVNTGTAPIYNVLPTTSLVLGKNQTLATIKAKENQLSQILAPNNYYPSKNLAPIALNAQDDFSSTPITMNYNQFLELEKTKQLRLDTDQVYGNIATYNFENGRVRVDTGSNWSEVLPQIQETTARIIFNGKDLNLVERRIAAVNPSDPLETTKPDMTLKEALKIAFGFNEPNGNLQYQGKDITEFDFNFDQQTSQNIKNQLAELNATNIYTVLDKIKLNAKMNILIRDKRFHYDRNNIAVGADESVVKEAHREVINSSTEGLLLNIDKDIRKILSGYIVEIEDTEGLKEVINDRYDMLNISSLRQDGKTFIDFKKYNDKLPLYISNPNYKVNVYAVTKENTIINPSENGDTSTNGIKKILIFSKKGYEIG

Binder | Kd [1] [nM] | koff [1] [s⁻¹] | kon [1] [M⁻¹ s⁻¹] | Kd [2] [nM] | fold improvement of KD over the whole antibody to PA [2] [fold] | Kd [3] [nM] | kon [3] [M⁻¹ s⁻¹] | Kd [4] [nM] | kon [4] [M⁻¹ s⁻¹]
anti-PA 14B7 scFv (scFv) scFv: DIQMTQTTSSLSASLGDRVTISCRASQDIRNYLNWYQQKPDGTVKLLIYYTSRLQSGVPSRFSGSGSGTDYSLTISNQEQEDIGTYFCQQGNTLPWTFGGGTKLEIKRGGGGSGGGGSGGGGSGGGGSEVQLQQSGPELVKPGASVKISCKDSGYAFSSSWMNWVKQRPGQGLEWIGRIYPGDGDTNYNGKFKGKATLTADKSSSTAYMQLSSLTSVDSAVYFCARSGLLRYAMDYWGQGTSVTVSS | 4.3 | 0.003 | 710000 |  |  |  |  |  | 
M18 scAb (scFv) scFv: DIQMTQTTSSLSASLGDRVTVSCRASQDIRNYLNWYQQKPDGTVKFLIYYTSRLQPGVPSRFSGSGSGTDYSLTINNLEQEDIGTYFCQQGNTPPWTFGGGTKLEIKRGGGGSGGGGSGGGGSGGGGSEVQLQQSGPELVKPGASVKISCKDSGYAFNSSWMNWVKQRPGQGLEWIGRIYPGDGDSNYNGKFEGKAILTADKSSSTAYMQLSSLTSVDSAVYFCARSGLLRYAMDYWGQGTSVTVSS | 0.035 | 4.2e-05 | 1.2e+06 | 0.054 | ~5 | 0.044 | 1.4e+06 | 0.095 | 930000
M18 scAb-PEG 20 kDa (scFv) scFv: DIQMTQTTSSLSASLGDRVTVSCRASQDIRNYLNWYQQKPDGTVKFLIYYTSRLQPGVPSRFSGSGSGTDYSLTINNLEQEDIGTYFCQQGNTPPWTFGGGTKLEIKRGGGGSGGGGSGGGGSGGGGSEVQLQQSGPELVKPGASVKISCKDSGYAFNSSWMNWVKQRPGQGLEWIGRIYPGDGDSNYNGKFEGKAILTADKSSSTAYMQLSSLTSVDSAVYFCARSGLLRYAMDYWGQGTSVTVSS |  |  |  |  |  | 0.69 | 100000 | 0.025 | 780000
M18 scAb-PEG 40 kDa (scFv) scFv: DIQMTQTTSSLSASLGDRVTVSCRASQDIRNYLNWYQQKPDGTVKFLIYYTSRLQPGVPSRFSGSGSGTDYSLTINNLEQEDIGTYFCQQGNTPPWTFGGGTKLEIKRGGGGSGGGGSGGGGSGGGGSEVQLQQSGPELVKPGASVKISCKDSGYAFNSSWMNWVKQRPGQGLEWIGRIYPGDGDSNYNGKFEGKAILTADKSSSTAYMQLSSLTSVDSAVYFCARSGLLRYAMDYWGQGTSVTVSS |  |  |  |  |  | 2.6 | 27000 | 0.043 | 870000
